The term Km denotes the substrate concentration at which the rate is half of its maximum.

Substrate in the data set: [H][C@]12CC[C@]3([H])[C@]([H])(C[C@H](O)[C@]4(C)C(C(C)CCC(=O)NCCS(=O)(=O)O)CC[C@@]34[H])[C@@]1(C)CC[C@H](OCCNC(=O)CCCc1ccc(N(CCCl)CCCl)cc1)C2
Briefly: TP_TRANSPORTER: uptake in Xenopus laevis oocytes. The format is functional, cell-based, Oocyte.

B1: Hepatic sodium/bile acid cotransporter (Homo sapiens) (protein)
chain: MEAHNASAPFNFTLPPNFGKRPTDLALSVILVFMLFFIMLSLGCTMEFSKIKAHLWKPKGLAIALVAQYGIMPLTAFVLGKVFRLKNIEALAILVCGCSPGGNLSNVFSLAMKGDMNLSIVMTTCSTFCALGMMPLLLYIYSRGIYDGDLKDKVPYKGIVISLVLVLIPCTIGIVLKSKRPQYMRYVIKGGMIIILLCSVAVTVLSAINVGKSIMFAMTPLLIATSSLMPFIGFLLGYVLSALFCLNGRCRRTVSMETGCQNVQLCSTILNVAFPPEVIGPLFFFPLLYMIFQLGEGLLLIAIFWCYEKFKTPKDKTKMIYTAATTEETIPGALGNGTYKGEDCSPCTA
With B1, the Km was 11 µM.

The values are drawn from ChEMBL document CHEMBL2074354, “Chlorambucil-taurocholate is transported by bile acid carriers expressed in human hepatocellular carcinomas” (Gastroenterology, 1997).
